We go through 46 molecules from paper PMC3424542.

To fix the notation:
T1: XtrLin28b ZKD (Xenopus tropicalis, UniProt B4F6I0 125-175)
T1 sequence: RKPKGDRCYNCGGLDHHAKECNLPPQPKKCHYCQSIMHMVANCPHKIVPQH

T2: XtrLin28b CSD W39A (Xenopus tropicalis, UniProt B4F6I0 27-114, W39A)
T2 sequence: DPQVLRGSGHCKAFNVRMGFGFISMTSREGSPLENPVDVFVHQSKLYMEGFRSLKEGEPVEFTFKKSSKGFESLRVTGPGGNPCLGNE

T3: XtrLin28b CSD (Xenopus tropicalis, UniProt B4F6I0 27-114)
T3 sequence: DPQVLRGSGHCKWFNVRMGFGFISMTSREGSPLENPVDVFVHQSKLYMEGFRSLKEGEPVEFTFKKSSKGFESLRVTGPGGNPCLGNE

T4: XtrLin28b CSD F77A (Xenopus tropicalis, UniProt B4F6I0 27-114, F77A)
T4 sequence: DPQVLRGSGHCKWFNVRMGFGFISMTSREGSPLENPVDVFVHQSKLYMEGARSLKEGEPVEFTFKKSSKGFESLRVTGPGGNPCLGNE

T5: XtrLin28b CSD H68A (Xenopus tropicalis, UniProt B4F6I0 27-114, H68A)
T5 sequence: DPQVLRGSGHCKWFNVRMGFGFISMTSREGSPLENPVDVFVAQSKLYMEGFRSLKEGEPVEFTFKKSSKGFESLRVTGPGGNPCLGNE

T6: XtrLin28b CSD F48A (Xenopus tropicalis, UniProt B4F6I0 27-114, F48A)
T6 sequence: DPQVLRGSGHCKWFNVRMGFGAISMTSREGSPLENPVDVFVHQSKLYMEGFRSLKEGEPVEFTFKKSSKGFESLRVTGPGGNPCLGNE

T7: XtrLin28b CSD F66A (Xenopus tropicalis, UniProt B4F6I0 27-114, F66A)
T7 sequence: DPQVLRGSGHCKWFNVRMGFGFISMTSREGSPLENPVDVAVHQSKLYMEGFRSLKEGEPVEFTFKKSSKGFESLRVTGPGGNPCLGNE

The target in one data set is T1, XtrLin28b ZKD. The data set can be described thus: ITC. In general terms: Isothermal titration calorimetry measures the heat released or taken up as one component is titrated into another.
As to AAAAAAAA (ssRNA) [rA8], the binding result is given as “no binding”. Broadly, the Kd is the constant that tells how readily two partners part at equilibrium. A higher Kd goes with a looser complex. AAAGAGAA (ssRNA) [rZ3] returned a Kd of 200 ± 30 nM.

Turning to AAGGGGAA (ssRNA) [rZ8], the binding result was “no binding”. On to AAGGUGAA (ssRNA) [rZ2], for which binding was put at a Kd of 32 ± 2 nM. Still for that read-out and setting: then AAGAAGAA (ssRNA) [rZ4], with 600 ± 170 nM. As to AAGGAAAA (ssRNA) [rZ6], the binding result is listed as “no binding”. The same measure, in the same setting: then UUUUUUU (ssRNA) [rU7], with “no binding”. For the molecule AAAGAAAA (ssRNA) [rZ7], binding was put at a Kd of 6800 ± 2100 nM.

A further data set addresses T2, XtrLin28b CSD W39A. The data set can be described thus: ITC.
Turning to GUCACACC (ssRNA) [rlet-7f5], binding was put at a Kd of 1130 ± 110 nM.

A further data set concerns the target T3, XtrLin28b CSD. The data set can be described thus: ITC.
Consider GUCAUAC (ssRNA) [rlet-7f1], for which binding was put at a Kd of 13 ± 2 nM. Consider GGUCACACC (ssRNA) [rlet-7f6], for which binding was characterised by a dissociation constant (Kd) of 21 ± 4 nM.

In turn, GGUCACAC (ssRNA) [rlet-7f4] registered a Kd of 66 ± 9 nM.

Consider GUCAAAC (ssRNA) [rlet-7f2], for which binding was put at a Kd of 54 ± 9 nM. GAAAAAA (ssRNA) [rGA6]: the binding result was “no binding”.

On to UUUUUUU (ssRNA) [rU7], for which the Kd came to 530 ± 65 nM.

As for GUCACACC (ssRNA) [rlet-7f5], the Kd stood at 18 ± 2 nM. As for GUCUUUU (ssRNA) [rG1b], the equilibrium dissociation constant (Kd) came to 27 ± 3 nM.

The molecule GACAAAC (ssRNA) [rlet-7f3] showed a Kd of 1360 ± 600 nM. As to GUCACAC (ssRNA) [rlet-7f (rlet-7f0)], the Kd was 46 ± 3 nM. As to GUUUUUU (ssRNA) [rG1], binding was characterised by a dissociation constant (Kd) of 35 ± 2 nM.

The target of a further data set is T4, XtrLin28b CSD F77A. The data set can be described thus: ITC.
Molecule GUCACACC (ssRNA) [rlet-7f5] yielded a Kd of 1180 ± 60 nM.

In a further data set the target is T5, XtrLin28b CSD H68A. The data set can be described thus: ITC.
GUCACACC (ssRNA) [rlet-7f5] displayed a Kd of 540 ± 50 nM.

The target in another data set is T6, XtrLin28b CSD F48A. The data set can be described thus: ITC.
In the case of GUCACACC (ssRNA) [rlet-7f5], the Kd came out at 1610 ± 340 nM.

For a further data set, the target named is T7, XtrLin28b CSD F66A. The data set can be described thus: ITC.
The molecule GUCACACC (ssRNA) [rlet-7f5] displayed a Kd of 1440 ± 200 nM.

In a further data set the target is T3, XtrLin28b CSD. The data set can be described thus: Trp fluorescence titration.
TTTTTTA (ssDNA) [dA7 (position 7)]: binding was put at a Kd of 113 ± 15 nM. Still for that read-out and setting: the result for TTTTTGT (ssDNA) [dG6] reads 81 ± 10 nM. As to AAAAAAA (ssDNA) [dA7 (heptaadenosine)], the binding result was “no binding”. In turn, ATTTTTT (ssDNA) [dA1] came in with a Kd of 84 ± 5 nM. In turn, TTGTTTT (ssDNA) [dG3] came in with a dissociation constant Kd of 139 ± 8 nM. The same measure, in the same setting: the result for TTTTTTG (ssDNA) [dG7 (position 7)] reads 80 ± 10 nM. With TATTTTT (ssDNA) [dA2], the Kd worked out at 311 ± 24 nM. Still for that read-out and setting: the result for TTTTATT (ssDNA) [dA5] reads 176 ± 8 nM. TTATTTT (ssDNA) [dA3] gave a Kd of 137 ± 10 nM. The same measure, in the same setting: the result for TTTCTTT (ssDNA) [dC4] reads 73 ± 6 nM; that for TTTTCTT (ssDNA) [dC5], 154 ± 26 nM. Same read-out and setting: the result for TTTTT (ssDNA) [dT5] reads 680 ± 40 nM; that for CTTTTTT (ssDNA) [dC1], 45 ± 4 nM; that for TGTTTTT (ssDNA) [dG2], 39 ± 4 nM.

As for TTTTTCT (ssDNA) [dC6], the Kd was found to be 87 ± 14 nM. GGGGGGG (ssDNA) [dG7 (heptaguanosine)]: the binding result was “no binding”.

TTCTTTT (ssDNA) [dC3] returned a dissociation constant (Kd) of 71 ± 3 nM. Same read-out and setting: the result for TTTTTT (ssDNA) [dT6] reads 169 ± 30 nM; that for TCTTTTT (ssDNA) [dC2], 137 ± 22 nM; that for TTTTTTTT (ssDNA) [dT8], 32 ± 1 nM.

The molecule GTTTTTT (ssDNA) [dG1] had a Kd of 12 ± 1 nM. The same measure, in the same setting: then TTTATTT (ssDNA) [dA4], with 124 ± 12 nM; and TTTTTTTTT (ssDNA) [dT9], with 44 ± 3 nM; and TTTTTTT (ssDNA) [dT7], with 59 ± 5 nM. With TTTGTTT (ssDNA) [dG4], the Kd was 119 ± 16 nM. Still for that read-out and setting: then TTTTTAT (ssDNA) [dA6], with 147 ± 15 nM; and TTTTGTT (ssDNA) [dG5], with 45 ± 4 nM. Still for that read-out and setting: the result for TTTTTTC (ssDNA) [dC7] reads 59 ± 4 nM.
